According to patent US20140105889A1 (published 2014):

B1: GpH7-B3 D270A / GpL16-k0 (antibody, human IgG1)
heavy: not shown
light: DIVMTQSPLSLPVTPGEPASISCQASESLVHSNRNTYLHWYLQKPGQSPQLLIYKVSNRFSGVPDRFSGSGSGTDFTLKISRVEAEDVGVYYCSQNTHVPPTFGQGTKVEIE
notes: B3 variant: anti-glypican-3 IgG1 (constant region B3 = G1d with K439E) with one substitution, EU numbering; also called B3 variant D270A; copies: 2 + 2
B2: GpH7-B3 D270L / GpL16-k0 (antibody, human IgG1)
heavy: not shown
light: B1 light
notes: B3 variant: anti-glypican-3 IgG1 (constant region B3 = G1d with K439E) with one substitution, EU numbering; also called B3 variant D270L; copies: 2 + 2
B3: GpH7-B3 D270F / GpL16-k0 (antibody, human IgG1)
heavy: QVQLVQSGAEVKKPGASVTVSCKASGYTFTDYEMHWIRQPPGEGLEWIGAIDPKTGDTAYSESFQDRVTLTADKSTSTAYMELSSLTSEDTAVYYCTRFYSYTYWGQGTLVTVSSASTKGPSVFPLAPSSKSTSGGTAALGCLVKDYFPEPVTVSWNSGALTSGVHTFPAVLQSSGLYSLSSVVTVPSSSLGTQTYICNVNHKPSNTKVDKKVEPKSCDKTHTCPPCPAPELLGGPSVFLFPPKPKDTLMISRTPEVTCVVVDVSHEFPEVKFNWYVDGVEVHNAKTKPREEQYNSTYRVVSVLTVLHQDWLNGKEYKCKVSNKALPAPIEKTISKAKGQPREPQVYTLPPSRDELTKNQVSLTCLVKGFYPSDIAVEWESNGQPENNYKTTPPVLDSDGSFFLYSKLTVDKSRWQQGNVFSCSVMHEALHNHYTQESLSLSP
light: B1 light
notes: B3 variant: anti-glypican-3 IgG1 (constant region B3 = G1d with K439E) with one substitution, EU numbering; also called B3 variant D270F; copies: 2 + 2
B4: GpH7-B3 D270Q / GpL16-k0 (antibody, human IgG1)
heavy: not shown
light: B1 light
notes: B3 variant: anti-glypican-3 IgG1 (constant region B3 = G1d with K439E) with one substitution, EU numbering; also called B3 variant D270Q; copies: 2 + 2
B5: GpH7-B3 D270H / GpL16-k0 (antibody, human IgG1)
heavy: not shown
light: B1 light
notes: B3 variant: anti-glypican-3 IgG1 (constant region B3 = G1d with K439E) with one substitution, EU numbering; also called B3 variant D270H; copies: 2 + 2
B6: GpH7-B3 D270M / GpL16-k0 (antibody, human IgG1)
heavy: not shown
light: B1 light
notes: B3 variant: anti-glypican-3 IgG1 (constant region B3 = G1d with K439E) with one substitution, EU numbering; also called B3 variant D270M; copies: 2 + 2
B7: GpH7-B3 D270I / GpL16-k0 (antibody, human IgG1)
heavy: not shown
light: B1 light
notes: B3 variant: anti-glypican-3 IgG1 (constant region B3 = G1d with K439E) with one substitution, EU numbering; also called B3 variant D270I; copies: 2 + 2
B8: GpH7-B3 D270N / GpL16-k0 (antibody, human IgG1)
heavy: not shown
light: B1 light
notes: B3 variant: anti-glypican-3 IgG1 (constant region B3 = G1d with K439E) with one substitution, EU numbering; also called B3 variant D270N; copies: 2 + 2
B9: GpH7-B3/GpL16-k0 with A327R introduced into GpH7-B3 (antibody, human IgG1)
heavy: not shown
light: B1 light
notes: Anti-glypican-3 human IgG1; constant region B3 (G1d with K439E); Fc variant; also called B3 variant; copies: 2 + 2
B10: GpH7-B3/GpL16-k0 with P329N introduced into GpH7-B3 (antibody, human IgG1)
heavy: not shown
light: B1 light
notes: as for B9
B11: GpH7-B3/GpL16-k0 with L328R introduced into GpH7-B3 (antibody, human IgG1)
heavy: not shown
light: B1 light
notes: as for B9
B12: GpH7-B3/GpL16-k0 with N325K introduced into GpH7-B3 (antibody, human IgG1)
heavy: not shown
light: B1 light
notes: as for B9
B13: GpH7-B3/GpL16-k0 with A327W introduced into GpH7-B3 (antibody, human IgG1)
heavy: not shown
light: B1 light
notes: as for B9
B14: GpH7-B3/GpL16-k0 with A327V introduced into GpH7-B3 (antibody, human IgG1)
heavy: not shown
light: B1 light
notes: as for B9
B15: GpH7-B3/GpL16-k0 with A327F introduced into GpH7-B3 (antibody, human IgG1)
heavy: not shown
light: B1 light
notes: as for B9
B16: GpH7-B3/GpL16-k0 with N325G introduced into GpH7-B3 (antibody, human IgG1)
heavy: not shown
light: B1 light
notes: as for B9
B17: GpH7-B3/GpL16-k0 with N325T introduced into GpH7-B3 (antibody, human IgG1)
heavy: not shown
light: B1 light
notes: as for B9
B18: GpH7-B3/GpL16-k0 with A327K introduced into GpH7-B3 (antibody, human IgG1)
heavy: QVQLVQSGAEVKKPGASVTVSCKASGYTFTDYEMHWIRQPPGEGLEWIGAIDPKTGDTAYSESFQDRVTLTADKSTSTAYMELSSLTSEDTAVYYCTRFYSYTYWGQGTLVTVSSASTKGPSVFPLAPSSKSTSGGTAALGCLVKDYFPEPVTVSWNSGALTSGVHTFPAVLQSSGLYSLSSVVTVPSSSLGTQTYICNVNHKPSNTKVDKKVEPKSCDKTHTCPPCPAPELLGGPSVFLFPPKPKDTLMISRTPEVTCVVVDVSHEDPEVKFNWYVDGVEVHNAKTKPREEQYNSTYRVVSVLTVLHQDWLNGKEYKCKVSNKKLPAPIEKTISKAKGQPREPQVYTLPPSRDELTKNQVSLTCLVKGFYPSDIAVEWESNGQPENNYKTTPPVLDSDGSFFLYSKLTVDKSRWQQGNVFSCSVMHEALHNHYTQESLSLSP
light: B1 light
notes: as for B9
B19: GpH7-B3/GpL16-k0 with P329L introduced into GpH7-B3 (antibody, human IgG1)
heavy: not shown
light: B1 light
notes: as for B9
B20: GpH7-B3/GpL16-k0 with A327Y introduced into GpH7-B3 (antibody, human IgG1)
heavy: not shown
light: B1 light
notes: as for B9
B21: GpH7-B3/GpL16-k0 with Y300K introduced into GpH7-B3 (antibody, human IgG1)
heavy: not shown
light: B1 light
notes: as for B9
B22: GpH7-B3/GpL16-k0 with N325W introduced into GpH7-B3 (antibody, human IgG1)
heavy: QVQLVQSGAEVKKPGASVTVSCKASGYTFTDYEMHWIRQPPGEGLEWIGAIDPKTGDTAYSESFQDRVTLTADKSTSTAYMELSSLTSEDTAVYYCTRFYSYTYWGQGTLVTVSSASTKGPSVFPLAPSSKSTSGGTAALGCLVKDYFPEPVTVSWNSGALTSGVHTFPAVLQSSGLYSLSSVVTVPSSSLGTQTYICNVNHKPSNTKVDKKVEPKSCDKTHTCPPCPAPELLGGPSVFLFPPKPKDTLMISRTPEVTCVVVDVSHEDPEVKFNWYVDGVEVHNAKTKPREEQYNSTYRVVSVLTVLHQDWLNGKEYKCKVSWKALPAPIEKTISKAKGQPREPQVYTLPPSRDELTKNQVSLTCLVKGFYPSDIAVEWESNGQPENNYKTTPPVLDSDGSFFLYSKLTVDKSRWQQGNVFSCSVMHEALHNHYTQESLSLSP
light: B1 light
notes: as for B9
B23: GpH7-B3/GpL16-k0 with L328G introduced into GpH7-B3 (antibody, human IgG1)
heavy: not shown
light: B1 light
notes: as for B9
B24: GpH7-B3/GpL16-k0 with P329F introduced into GpH7-B3 (antibody, human IgG1)
heavy: not shown
light: B1 light
notes: as for B9
B25: GpH7-B3/GpL16-k0 with L328K introduced into GpH7-B3 (antibody, human IgG1)
heavy: not shown
light: B1 light
notes: as for B9
B26: GpH7-B3/GpL16-k0 with A327H introduced into GpH7-B3 (antibody, human IgG1)
heavy: not shown
light: B1 light
notes: as for B9
B27: GpH7-B3/GpL16-k0 with A327L introduced into GpH7-B3 (antibody, human IgG1)
heavy: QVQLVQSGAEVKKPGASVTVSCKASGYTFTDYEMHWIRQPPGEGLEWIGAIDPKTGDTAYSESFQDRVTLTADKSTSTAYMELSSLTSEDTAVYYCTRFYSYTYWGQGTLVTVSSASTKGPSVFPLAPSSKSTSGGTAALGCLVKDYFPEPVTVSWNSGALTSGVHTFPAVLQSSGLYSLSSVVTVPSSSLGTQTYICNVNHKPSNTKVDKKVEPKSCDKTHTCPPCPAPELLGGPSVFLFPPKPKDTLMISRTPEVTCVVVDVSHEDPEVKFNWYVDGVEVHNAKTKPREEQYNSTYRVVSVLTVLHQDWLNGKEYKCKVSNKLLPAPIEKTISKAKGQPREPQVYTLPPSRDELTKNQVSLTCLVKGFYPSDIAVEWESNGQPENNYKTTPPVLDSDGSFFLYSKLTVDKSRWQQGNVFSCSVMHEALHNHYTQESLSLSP
light: B1 light
notes: as for B9
B28: GpH7-B3/GpL16-k0 with P329K introduced into GpH7-B3 (antibody, human IgG1)
heavy: not shown
light: B1 light
notes: as for B9
B29: GpH7-B3/GpL16-k0 with N325A introduced into GpH7-B3 (antibody, human IgG1)
heavy: not shown
light: B1 light
notes: as for B9
B30: GpH7-B3/GpL16-k0 with S324P introduced into GpH7-B3 (antibody, human IgG1)
heavy: not shown
light: B1 light
notes: as for B9
B31: GpH7-B3/GpL16-k0 with A327Q introduced into GpH7-B3 (antibody, human IgG1)
heavy: not shown
light: B1 light
notes: as for B9
B32: GpH7-B3/GpL16-k0 with N325V introduced into GpH7-B3 (antibody, human IgG1)
heavy: not shown
light: B1 light
notes: as for B9
B33: GpH7-B3/GpL16-k0 with N325H introduced into GpH7-B3 (antibody, human IgG1)
heavy: not shown
light: B1 light
notes: as for B9
B34: GpH7-B3/GpL16-k0 with N325I introduced into GpH7-B3 (antibody, human IgG1)
heavy: not shown
light: B1 light
notes: as for B9
B35: GpH7-B3/GpL16-k0 with L328P introduced into GpH7-B3 (antibody, human IgG1)
heavy: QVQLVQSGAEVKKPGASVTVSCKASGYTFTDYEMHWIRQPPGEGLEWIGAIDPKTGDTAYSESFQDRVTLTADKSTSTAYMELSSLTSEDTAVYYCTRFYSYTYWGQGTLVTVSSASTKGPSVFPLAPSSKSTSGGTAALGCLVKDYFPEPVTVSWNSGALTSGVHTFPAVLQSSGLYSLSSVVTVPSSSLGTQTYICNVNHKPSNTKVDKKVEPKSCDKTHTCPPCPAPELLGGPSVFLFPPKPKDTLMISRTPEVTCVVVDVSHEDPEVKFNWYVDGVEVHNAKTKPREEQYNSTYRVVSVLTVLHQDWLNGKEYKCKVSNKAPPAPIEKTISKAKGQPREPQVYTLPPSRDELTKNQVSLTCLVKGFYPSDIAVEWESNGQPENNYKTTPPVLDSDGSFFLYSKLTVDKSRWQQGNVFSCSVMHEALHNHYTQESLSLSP
light: B1 light
notes: as for B9
B36: GpH7-B3/GpL16-k0 with P329I introduced into GpH7-B3 (antibody, human IgG1)
heavy: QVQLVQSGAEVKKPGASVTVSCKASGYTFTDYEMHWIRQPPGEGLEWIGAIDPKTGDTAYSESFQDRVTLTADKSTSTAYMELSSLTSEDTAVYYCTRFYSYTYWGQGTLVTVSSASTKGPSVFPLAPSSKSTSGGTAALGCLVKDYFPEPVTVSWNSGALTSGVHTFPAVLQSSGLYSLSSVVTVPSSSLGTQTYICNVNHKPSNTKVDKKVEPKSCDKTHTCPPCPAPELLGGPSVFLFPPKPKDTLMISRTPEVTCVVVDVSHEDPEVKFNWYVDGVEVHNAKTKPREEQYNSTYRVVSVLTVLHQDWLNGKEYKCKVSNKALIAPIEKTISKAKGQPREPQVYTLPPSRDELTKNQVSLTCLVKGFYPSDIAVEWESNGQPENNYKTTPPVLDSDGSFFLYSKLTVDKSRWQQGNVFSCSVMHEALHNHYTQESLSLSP
light: B1 light
notes: as for B9
B37: GpH7-B3/GpL16-k0 with N325F introduced into GpH7-B3 (antibody, human IgG1)
heavy: not shown
light: B1 light
notes: as for B9
B38: GpH7-B3/GpL16-k0 with A327S introduced into GpH7-B3 (antibody, human IgG1)
heavy: not shown
light: B1 light
notes: as for B9
B39: GpH7-B3/GpL16-k0 with P329Q introduced into GpH7-B3 (antibody, human IgG1)
heavy: not shown
light: B1 light
notes: as for B9
B40: GpH7-B3/GpL16-k0 with L328N introduced into GpH7-B3 (antibody, human IgG1)
heavy: not shown
light: B1 light
notes: as for B9
B41: GpH7-B3/GpL16-k0 with N325P introduced into GpH7-B3 (antibody, human IgG1)
heavy: not shown
light: B1 light
notes: as for B9
B42: GpH7-B3/GpL16-k0 with A327T introduced into GpH7-B3 (antibody, human IgG1)
heavy: not shown
light: B1 light
notes: as for B9
B43: GpH7-B3/GpL16-k0 with A327M introduced into GpH7-B3 (antibody, human IgG1)
heavy: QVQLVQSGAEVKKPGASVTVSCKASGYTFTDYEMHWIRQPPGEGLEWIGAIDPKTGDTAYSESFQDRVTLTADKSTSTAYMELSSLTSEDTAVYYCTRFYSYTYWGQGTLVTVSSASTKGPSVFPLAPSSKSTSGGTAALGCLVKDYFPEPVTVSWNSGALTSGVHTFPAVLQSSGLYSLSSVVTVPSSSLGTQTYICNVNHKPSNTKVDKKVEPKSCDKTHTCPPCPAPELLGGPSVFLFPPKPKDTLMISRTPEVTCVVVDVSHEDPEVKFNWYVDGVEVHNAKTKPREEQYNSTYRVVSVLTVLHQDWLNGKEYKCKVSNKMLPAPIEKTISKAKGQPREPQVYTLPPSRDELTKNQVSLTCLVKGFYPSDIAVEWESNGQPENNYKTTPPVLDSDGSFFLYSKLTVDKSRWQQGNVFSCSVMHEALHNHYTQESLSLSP
light: B1 light
notes: as for B9
B44: GpH7-B3/GpL16-k0 with L328H introduced into GpH7-B3 (antibody, human IgG1)
heavy: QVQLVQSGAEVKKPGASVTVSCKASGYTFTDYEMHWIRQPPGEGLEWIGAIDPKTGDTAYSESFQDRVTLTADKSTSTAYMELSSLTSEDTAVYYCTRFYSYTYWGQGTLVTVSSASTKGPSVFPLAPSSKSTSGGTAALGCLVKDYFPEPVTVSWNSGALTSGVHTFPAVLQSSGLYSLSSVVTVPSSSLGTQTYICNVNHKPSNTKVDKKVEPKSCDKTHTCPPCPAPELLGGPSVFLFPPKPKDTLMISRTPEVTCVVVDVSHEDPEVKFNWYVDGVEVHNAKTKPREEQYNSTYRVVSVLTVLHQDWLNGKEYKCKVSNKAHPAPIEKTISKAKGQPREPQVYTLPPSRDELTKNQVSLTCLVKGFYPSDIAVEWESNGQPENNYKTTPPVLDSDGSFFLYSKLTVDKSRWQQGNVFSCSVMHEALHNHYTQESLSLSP
light: B1 light
notes: as for B9
B45: GpH7-B3/GpL16-k0 with A327P introduced into GpH7-B3 (antibody, human IgG1)
heavy: not shown
light: B1 light
notes: as for B9
B46: GpH7-B3/GpL16-k0 with S324K introduced into GpH7-B3 (antibody, human IgG1)
heavy: not shown
light: B1 light
notes: as for B9
B47: GpH7-B3/GpL16-k0 with P329T introduced into GpH7-B3 (antibody, human IgG1)
heavy: not shown
light: B1 light
notes: as for B9
B48: GpH7-B3/GpL16-k0 with P329H introduced into GpH7-B3 (antibody, human IgG1)
heavy: not shown
light: B1 light
notes: as for B9
B49: GpH7-B3/GpL16-k0 with N325Y introduced into GpH7-B3 (antibody, human IgG1)
heavy: not shown
light: B1 light
notes: as for B9
B50: GpH7-B3/GpL16-k0 with P329M introduced into GpH7-B3 (antibody, human IgG1)
heavy: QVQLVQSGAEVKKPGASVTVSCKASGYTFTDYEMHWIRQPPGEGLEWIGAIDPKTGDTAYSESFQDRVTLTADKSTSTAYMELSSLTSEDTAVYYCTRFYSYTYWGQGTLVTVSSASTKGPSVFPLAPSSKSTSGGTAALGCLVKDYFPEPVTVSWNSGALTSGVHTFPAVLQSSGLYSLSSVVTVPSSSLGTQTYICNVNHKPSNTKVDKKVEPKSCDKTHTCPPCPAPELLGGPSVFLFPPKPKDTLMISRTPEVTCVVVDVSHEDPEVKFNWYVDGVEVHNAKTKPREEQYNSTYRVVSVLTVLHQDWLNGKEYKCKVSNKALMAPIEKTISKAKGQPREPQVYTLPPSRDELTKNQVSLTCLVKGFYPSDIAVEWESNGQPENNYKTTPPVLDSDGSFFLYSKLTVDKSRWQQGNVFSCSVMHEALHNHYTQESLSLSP
light: B1 light
notes: as for B9
B51: GpH7-B3/GpL16-k0 with P329V introduced into GpH7-B3 (antibody, human IgG1)
heavy: not shown
light: B1 light
notes: as for B9
B52: GpH7-B3/GpL16-k0 with P329R introduced into GpH7-B3 (antibody, human IgG1)
heavy: not shown
light: B1 light
notes: as for B9
B53: GpH7-B3/GpL16-k0 with N325R introduced into GpH7-B3 (antibody, human IgG1)
heavy: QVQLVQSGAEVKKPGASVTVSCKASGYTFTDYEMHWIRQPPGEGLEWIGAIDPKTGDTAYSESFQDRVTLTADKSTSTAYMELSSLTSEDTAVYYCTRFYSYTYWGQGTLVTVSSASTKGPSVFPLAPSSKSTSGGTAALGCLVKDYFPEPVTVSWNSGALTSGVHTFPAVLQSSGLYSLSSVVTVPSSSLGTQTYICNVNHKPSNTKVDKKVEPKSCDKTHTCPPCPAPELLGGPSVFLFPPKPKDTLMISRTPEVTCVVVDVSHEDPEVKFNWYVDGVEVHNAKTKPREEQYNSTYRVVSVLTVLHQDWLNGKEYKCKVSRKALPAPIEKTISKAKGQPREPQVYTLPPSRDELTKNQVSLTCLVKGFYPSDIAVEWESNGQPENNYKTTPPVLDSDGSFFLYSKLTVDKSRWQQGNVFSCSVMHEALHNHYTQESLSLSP
light: B1 light
notes: as for B9

target: T1, human FcγRIIIa(F) (human, UniProt P08637 17-208, limits assumed); experiment: SPR (Biacore), antibody captured, FcγR as analyte
T1 construct: also called FcgRIIIaF; FcγRIIIa allotype F158
T1 sequence (P08637 other isoform, or with tags, fused parts or gaps limits assumed): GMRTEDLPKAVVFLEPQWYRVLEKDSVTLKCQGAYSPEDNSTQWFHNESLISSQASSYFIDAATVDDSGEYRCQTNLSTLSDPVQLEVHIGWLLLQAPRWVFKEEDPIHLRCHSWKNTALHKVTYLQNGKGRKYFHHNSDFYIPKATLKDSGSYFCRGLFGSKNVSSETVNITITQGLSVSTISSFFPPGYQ

Row | Binder | relative binding activity (amount bound / amount bound by GpH7-B3/GpL16-k0 x100)
1 | B1 | 23 % of GpH7-B3/GpL16-k0
2 | B2 | 33 % of GpH7-B3/GpL16-k0
3 | B3 | 12 % of GpH7-B3/GpL16-k0
4 | B4 | 49 % of GpH7-B3/GpL16-k0
5 | B5 | 11 % of GpH7-B3/GpL16-k0
6 | B6 | 29 % of GpH7-B3/GpL16-k0
7 | B7 | 23 % of GpH7-B3/GpL16-k0
8 | B8 | 13 % of GpH7-B3/GpL16-k0

target: T2, human FcγRIIIa(F) (human, UniProt P08637 17-208, limits assumed); experiment: SPR (Biacore), captured antibody, FcγR analyte; bound amount relative to GpH7-B3/GpL16-k0 x100;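 note: receptor response divided by the antibody amount captured on the chip before comparison with the reference antibody, measured at 25 °C in HBS-EP+ running buffer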
T2 construct: also called FcgRIIIaF; FcγRIIIa allotype F158
T2 sequence (P08637 other isoform, or with tags, fused parts or gaps limits assumed): as above
Procedure: Interaction between each modified antibody and Fcγ receptor prepared in the manner described above was analyzed using the Biacore T100 (GE Healthcare), Biacore T200 (GE Healthcare), Biacore A100 or Biacore 4000. HBS-EP+ (GE Healthcare) was used for the running buffer, and measurements were carried out at 25° C. The chips used were chips in which antigen peptides, Protein A (Thermo Scientific), Protein A/G (Thermo Scientific) or Protein L (ACTIGEN or BioVision) were immobilized on the Series S Sensor Chip CM5 (GE Healthcare) or Series S Sensor Chip CM4 (GE Healthcare) by amine coupling, or chips in which preliminarily biotinylated antigen peptides were allowed to interact and then immobilized on the Series S Sensor Chip SA (certified) (GE Healthcare). The target antibodies were captured on these sensor chips, Fcγ receptor diluted with the running buffer was allowed to interact, followed by measurement of the amount of bound antibody. The amounts bound were compared between antibodies. However, since the amount of Fcγ receptor bound depends on the amount of captured antibody, the values used for comparison were first corrected by dividing the amount of Fcγ receptor bound by the captured amount of each antibody. Through reaction with 10 mM glycine-HCl at pH 1.5, the sensor chips were regenerated by washing off antibody captured on the sensor chips and used repeatedly.
Binding strength was evaluated according to the following method based on the results of analyzing the interaction with each FcγR. […] That value was then further multiplied by 100, and the resulting value was used as an indicator of relative binding activity to each FcγR.

Row | Binder | relative binding activity
9 | B9 | 1 % of GpH7-B3/GpL16-k0
10 | B10 | 3 % of GpH7-B3/GpL16-k0
11 | B11 | -1 % of GpH7-B3/GpL16-k0
12 | B12 | -2 % of GpH7-B3/GpL16-k0
13 | B13 | 17 % of GpH7-B3/GpL16-k0
14 | B14 | 18 % of GpH7-B3/GpL16-k0
15 | B15 | 16 % of GpH7-B3/GpL16-k0
16 | B16 | 1 % of GpH7-B3/GpL16-k0
17 | B17 | 10 % of GpH7-B3/GpL16-k0
18 | B18 | 5 % of GpH7-B3/GpL16-k0
19 | B19 | 0 % of GpH7-B3/GpL16-k0
20 | B20 | 13 % of GpH7-B3/GpL16-k0
21 | B21 | 35 % of GpH7-B3/GpL16-k0
22 | B22 | -2 % of GpH7-B3/GpL16-k0
23 | B23 | 8 % of GpH7-B3/GpL16-k0
24 | B24 | 0 % of GpH7-B3/GpL16-k0
25 | B25 | 0 % of GpH7-B3/GpL16-k0
26 | B26 | 14 % of GpH7-B3/GpL16-k0
27 | B27 | 13 % of GpH7-B3/GpL16-k0
28 | B28 | -1 % of GpH7-B3/GpL16-k0
29 | B29 | 6 % of GpH7-B3/GpL16-k0
30 | B30 | 35 % of GpH7-B3/GpL16-k0
31 | B31 | 18 % of GpH7-B3/GpL16-k0

Row | Binder | relative binding activity
32 | B32 | 2 % of GpH7-B3/GpL16-k0
33 | B33 | 37 % of GpH7-B3/GpL16-k0
34 | B34 | 1 % of GpH7-B3/GpL16-k0
35 | B35 | 3 % of GpH7-B3/GpL16-k0
36 | B36 | 2 % of GpH7-B3/GpL16-k0
37 | B37 | -1 % of GpH7-B3/GpL16-k0
38 | B38 | 42 % of GpH7-B3/GpL16-k0
39 | B39 | -1 % of GpH7-B3/GpL16-k0
40 | B40 | 22 % of GpH7-B3/GpL16-k0
41 | B41 | 0 % of GpH7-B3/GpL16-k0
42 | B42 | 10 % of GpH7-B3/GpL16-k0
43 | B43 | 24 % of GpH7-B3/GpL16-k0
44 | B44 | 13 % of GpH7-B3/GpL16-k0
45 | B45 | 20 % of GpH7-B3/GpL16-k0
46 | B46 | 74 % of GpH7-B3/GpL16-k0
47 | B47 | -1 % of GpH7-B3/GpL16-k0
48 | B48 | -1 % of GpH7-B3/GpL16-k0
49 | B49 | 5 % of GpH7-B3/GpL16-k0
50 | B50 | 0 % of GpH7-B3/GpL16-k0
51 | B51 | 7 % of GpH7-B3/GpL16-k0
52 | B52 | -2 % of GpH7-B3/GpL16-k0
53 | B53 | -1 % of GpH7-B3/GpL16-k0
